According to patent US20190202925A1 (OPI VI IP HOLDCO, published 2019):
Where a chain is given by its changes, count along the chain named. Like-named read-outs stand apart in the source and are kept apart here. Values belong to the binder of their own block, whether it stands above or below them.

Legend:
soluble human TNFR2 [1] = molecular target: T1, soluble human TNFR2 (human, UniProt P20333 23-257); assay: competition ELISA: plate-bound soluble human TNFR2, competitor biotinylated TNFα; IC50 relative to unlabelled TNFα = 1.00
T1 construct: also called soluble TNFR2
T1 sequence (looked up): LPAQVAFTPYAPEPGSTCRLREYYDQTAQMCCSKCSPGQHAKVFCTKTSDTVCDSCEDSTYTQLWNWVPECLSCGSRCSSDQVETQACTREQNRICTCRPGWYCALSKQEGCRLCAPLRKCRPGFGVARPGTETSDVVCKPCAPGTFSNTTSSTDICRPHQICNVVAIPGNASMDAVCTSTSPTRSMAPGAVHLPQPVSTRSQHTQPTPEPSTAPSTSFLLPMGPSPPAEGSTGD
Procedure: (§1) Soluble human TNFR2 (Sino Biological, 10417-H08H) or cynomolgus TNFR2 (Sino Biological, 90102-C08H) was coated on Nunc-Immuno™ plates at 0.1 μg/ml, 0.5 ug/ml, 1 μg/ml, and 5 μg/ml. […] Plates were developed using TMB and stopped with 3 M HCl.

soluble cynomolgus TNFR2 [2] = molecular target: T2, soluble cynomolgus TNFR2 (cynomolgus, UniProt A0A2K5VET2 132-366); assay: competition ELISA, plate-bound soluble cynomolgus TNFR2, biotinylated TNFα as competitor
T2 sequence: T1 sequence (looked up) with S16G, S36P, P117Q, N164H, E210A, S216G, M223V
Procedure: as §1
(§2) IC₅₀ values are reported in nM.

[3] = molecular target: T3, monomeric human TNFR2 extracellular domain (human, UniProt P20333 23-257); assay: BLI (Octet Red 96), antibody captured on Fc biosensor, monomeric TNFR2 ECD in solution, 1:1 model
T3 construct: extracellular domain; Analyte in the Octet experiments; also called human TNFR2 ECD
T3 sequence (looked up): T1 sequence (looked up)

[4] = molecular target: T4, monomeric cynomolgus TNFR2 extracellular domain (cynomolgus monkey, UniProt A0A2K5VET2 132-366); assay: as above
T4 construct: extracellular domain; Analyte in the Octet experiments; also called cynomolgus TNFR2 ECD; Cyno TNFR2
T4 sequence: T1 sequence (looked up) with S16G, S36P, P117Q, N164H, E210A, S216G, M223V

soluble human TNFR2 [5] = molecular target: T1, soluble human TNFR2; assay: competition ELISA: plate-bound soluble human TNFR2, competitor biotinylated TNFα, streptavidin-HRP, A450
Procedure: as §1

soluble cynomolgus TNFR2 [6] = molecular target: T2, soluble cynomolgus TNFR2; assay: competition ELISA: plate-bound soluble cynomolgus TNFR2, competitor biotinylated TNFα, streptavidin-HRP, A450
Procedure: as §1

soluble cynomolgus TNFR2 [7] = molecular target: T2, soluble cynomolgus TNFR2; assay: competition ELISA: plate-bound soluble cynomolgus TNFR2, competitor biotinylated TNFα; IC50 relative to unlabelled TNFα = 1.00
Procedure: as §1, §2

soluble cynomolgus TNFR2 [8] = molecular target: T2, soluble cynomolgus TNFR2; assay: as above; remark: listed apart in the source
Procedure: as §1

[9] = molecular target: T5, cynomolgus TNFR2 on cells (cynomolgus); assay: flow cytometry on cynomolgus PBMC, antibody at 10 ug/mL, anti-human Fc-PE secondary
T5 construct: whole, on cells; also called cynomolgus TNFR2 on CD4+ and CD8+ T cells
Procedure: Cynomolgus peripheral blood mononuclear cells (PBMCs) from two independent donors were isolated by diluting whole blood (SNBL USA) 1:1 in PBS (Lonza), layering over Ficoll-Paque Plus (GE Healthcare), and centrifuging for 35 minutes at 400×g. The PBMC fraction was removed, washed 3 times in 2% FBS PBS and counted. 0.3×10⁶ PBMC were resuspended in Fixable Viability Stain 575V (BD) diluted 1:1000 in PBS and incubated for 10 minutes. PBMC were then washed twice in PBS to remove residual viability stain, resuspended in Horizon Brilliant Stain Buffer (BD) with 10 uL per test of human Fc receptor binding inhibitor (eBioscience), and incubated on ice for 20 minutes to block Fc receptors. […] PBMC were incubated 20 minutes on ice and then washed three times with 2% FBS PBS. To visualize TNFR2 chimeric antibody binding, PBMC were resuspended in goat anti-human Fc-PE F(ab′)₂ secondary reagent (Jackson ImmunoResearch) diluted 1:200 in 2% FBS PBS and incubated on ice for 20 minutes. Cells were then washed three times in 2% FBS PBS and resuspended in 200 uL 2% FBS PBS for flow cytometry analysis using a BD FACS Celesta instrument and FACS Diva software. T cells were analyzed for chimeric TNFR2 binding by gating on viable cells defined as lymphocytes using forward and side scatter and as T cells by anti-CD3 staining. CD4⁺ and CD8⁺ subsets were identified using commercial specific antibody conjugates.

soluble human TNFR2 [10] = molecular target: T1, soluble human TNFR2; assay: competition ELISA, plate-bound soluble human TNFR2, biotinylated TNFα as competitor
Procedure: as §1, §2

soluble human TNFR2 [11] = molecular target: T1, soluble human TNFR2; assay: competition ELISA: plate-bound soluble human TNFR2, competitor biotinylated TNFα; IC50 relative to unlabelled TNFα = 1.00; remark: listed apart in the source
Procedure: as §1, §2

Relative IC50 (soluble human TNFR2 [1]): 3.03 nM
Average Relative IC50 (soluble cynomolgus TNFR2 [2]): 3.38
Kd [3]: 0.8 nM
Kd [4]: 0.62 nM
IC50 (soluble human TNFR2 [5]): 7.53 nM
IC50 (soluble cynomolgus TNFR2 [6]): 27.6 nM
Relative IC50 (soluble cynomolgus TNFR2 [7]): 2.87 nM
Relative IC50 (soluble cynomolgus TNFR2 [8]): 4.16 nM
% CD4^+ ab^+ Donor 1 [9]: 9%
% CD4^+ ab^+ Donor 2 [9]: 14.1%
% CD8^+ ab^+ Donor 1 [9]: 9.5%
% CD8^+ ab^+ Donor 2 [9]: 29%
Average Relative IC50 (soluble human TNFR2 [10]): 2.91 nM
Relative IC50 (soluble human TNFR2 [11]): 2.98 nM
B1: chimeric SBT-002 (antibody, V domains shown)
VH: QVTLKESGPGILQPSQTLSLTCSFSGFSLSTSGMGVGWIRQPSGKGLEWLAHIWWDDDKFYNPSLKSQLTISKDTSRNQVFLKLTSVVTADTATYYCARLTGTRYFDYWGQGTTLTVSS
VL: DVQMTQSPSSLSASLGGKVTITCKASQDINKFIAWYQHKPGKGPRLLIHYTSTLQPGIPSKFSGSGSGRDYSFSISNLEPEDIATYYCLQYGNLWTFGGGTKLEIT
notes: also called chSBT-002

Relative IC50 (soluble human TNFR2 [1]): 6.72 nM
Average Relative IC50 (soluble cynomolgus TNFR2 [2]): 3.64
Kd [3]: 3.6 nM
Kd [4]: 3.4 nM
IC50 (soluble human TNFR2 [5]): 16.7 nM
IC50 (soluble cynomolgus TNFR2 [6]): 31 nM
Relative IC50 (soluble cynomolgus TNFR2 [7]): 3.22 nM
Relative IC50 (soluble cynomolgus TNFR2 [8]): 4.45 nM
% CD4^+ ab^+ Donor 1 [9]: 10.2%
% CD4^+ ab^+ Donor 2 [9]: 7.6%
% CD8^+ ab^+ Donor 1 [9]: 11.2%
% CD8^+ ab^+ Donor 2 [9]: 18.4%
Average Relative IC50 (soluble human TNFR2 [10]): 5.07 nM
Relative IC50 (soluble human TNFR2 [11]): 3.54 nM
B2: chimeric SBT-004 (antibody, V domains shown)
VH: EVQLQQSGPEVGRPGSSVKISCKASGYTFTDYIMHWVKQSPGQGLEWIGWVDPEYGSTDYAEKFKKKATLTADTSSNTAYIQLSSLTSEDTATYFCARDDGSYSPFDYWGQGVMVTVSS
VL: DIQMTQSPPSLSASLGDKVTITCQASQNINKYIAWYQQKPGKAPRLLIRYTSTLESGTPSRFSGSGSGRDYSFSISNVESEDIASYYCLQYVNLLTFGAGTKLEIK
notes: VH fused to a human IgG1 Fc domain; also called chSBT-004
